The results in this text go back to EP4269437A1 (Zhejiang Nanomab Technology Center Co. Ltd., dated 2023).

The term Kd denotes the free concentration of one partner at which half of the binding sites on the other are occupied at equilibrium, for simple one-to-one binding. Higher therefore signals lower affinity. For orientation: koff means the rate constant with which the complex falls apart. High values mean fast dissociation, low ones slow dissociation. Usually kon stands for a measure of how fast the partners come together. A low value points to slower complex formation.

To fix the notation:
B1: NB182-z4 (Fc fusion)
heavy: EVQLVESGGGLVQPGGSLRLSCSASGDTSFISAAGWYRQAPGKERELVSAITNTGITYYPDSVKGRFTISRDNSKNTVYLQMNNLRAEDTAVYYCNAGAPPPGGLGYDESDYWGQGTQVTVSS
notes: format not restated; not shown: IgG4 constant region of vector pCDNA3.4-IgG4
B2: NB182-z2 (Fc fusion)
heavy: EVQLVESGGGLVQPGGSLRLSCSASGDTSFISAAGWYRQAPGKERELVSAITNTGITYYPDSVKGRFTISRDNAKNTVYLQMNSLRAEDTAVYYCNAGAPPPGGLGYDESDYWGQGTQVTVSS
notes: as for B1
B3: NB182-z3 (Fc fusion)
heavy: EVQLVESGGGLVQPGGSLRLSCSASGDTSFISAAGWYRQAPGKERELVSAITNTGITYYPDSVKGRFTISRDNSKNTLYLQMNNLRAEDTAVYYCNAGAPPPGGLGYDESDYWGQGTQVTVSS
notes: as for B1
B4: NB182-z1 (Fc fusion)
heavy: EVQLVESGGGLVQPGGSLRLSCSASGDTSFISAAGWYRQAPGKERELVSAITNTGITYYPDSVKGRFTISRDNSKNTVYLQMNSLRAEDTAVYYCNAGAPPPGGLGYDESDYWGQGTQVTVSS
notes: as for B1
B5: NB182-z5 (Fc fusion)
heavy: EVQLVESGGGLVQPGGSLRLSCSASGDTSFISAAGWYRQAPGKERELVAAITNTGITYYPDSVKGRFTISRDNSKNTVYLQMNSLRAEDTAVYYCNAGAPPPGGLGYDESDYWGQGTLVTVSS
notes: as for B1
B6: NB194-z5 (Fc fusion)
heavy: EVQLVESGGGLVQPGGSLRLSCAASGRPFSIYDMGWFRQAPDKERESVAVINLSRGNTYYADSVKGRFTISRDNAKNTVYLQMNSLRAEDTAVYSCGVDRRQYGLGIPPLADHWGQGTQVTVSS
notes: as for B1
B7: NB194-z2 (Fc fusion)
heavy: EVQLVESGGGLVQPGGSLRLSCAASGRPFSIYDMGWFRQAPDKERESVAVISLSRGNTYYADSVKGRFTISRDSAKNTVYLQMNSLRAEDTAVYSCGVDRRQYGLGIPPLADHWGQGTQVTVSS
notes: as for B1
B8: NB194-z4 (Fc fusion)
heavy: EVQLVESGGGLVQPGGSLRLSCAASGRPFSIYDMGWFRQAPDKERESVAVINLARGNTYYADSVKGRFTISRDNAKNTVYLQMNSLRAEDTAVYSCGVDRRQYGLGIPPLADHWGQGTQVTVSS
notes: as for B1
B9: NB194-z1 (Fc fusion)
heavy: EVQLVESGGGLVQPGGSLRLSCAASGRPFSIYDMGWFRQAPDKERESVAVISLSRGNTYYADSVKGRFTISRDNAKNTVYLQMNSLRAEDTAVYSCGVDRRQYGLGIPPLADHWGQGTQVTVSS
notes: as for B1
B10: NB202 (Fc fusion)
heavy: EVQVVESGGGLVQAGGSLRLSCTASGDTRLASAMGWYRQAPGKERELVAAITNSGLTYYADSVEGRFTISRDSAKNTVYLQMNSLKPEDTAVYYCNAGAPPPGGLGYDESDYWGQGTQVTVSS
notes: not shown: IgG4 constant region of vector pCDNA3.4-IgG4
B11: NB173 (Fc fusion)
heavy: QVQLQESGGGLVQAGGSLRLSCAASGRSFNSYAMGWFRQAPGKEREFVAAISQNGGTQGYAEAVKDRFTISRDNTNKVVALQMNSLKPEDTAAYYCAADGDASDISYAPPRDYEYDYWGQGTQVTVSS
notes: as for B10
B12: NB532 (Fc fusion)
heavy: QVQLVETGGGLVQAGGSLRLSCAASGRTFSSYNMGWFRQAPGKEREFVAAISWSGGSQGYAAAVKDRFTISRDNAKNTVYLQMNSLKAEDTAVYYCAAKYHSGSYYYTSIRPEEYDYWGQGTQVTVSS
notes: as for B10
B13: NB147 (Fc fusion)
heavy: EVQVVESGGGVVQAGDSLRLSCVASGRTFSSVAMGWFRQAPGKEREFVAAISRSGGSAGYSDSVKDRSTISRDNAKNTVYLQMNSLKPEDTAVYFCAASELDFCSTLGCYDYWGQGIQVTFSS
notes: as for B10
B14: NB220 (Fc fusion)
heavy: QVQLQESGGGLLQAGDSLRLSCIVSGRTFSSYAIGWFRQAPGKEREFVAGINWSGRSQYYSESVKDRFTVSIDNAKNTVYLQMNSLKPEDTAVYYCAAERHLGVPTVRDDEYDDWGQGTQVTVSS
notes: as for B10
B15: NB171 (Fc fusion)
heavy: QVQLVESGGGLVQAGGSLRLSCAASGRTFSSYAMGWFRQALGKEREWIAGVSMSGRTTYYAAPVKDRFTISRDNAKNTVTLQMNSLKPEDTAVYYCAAGRAQAEIPIMRAQEYDSWGQGTQVTVSS
notes: as for B10
B16: NB222 (Fc fusion)
heavy: QVQLVESGGGLVQAGGSLRLSCAASGGTFSNFNVGWFRQAPGKEREFVAASNWSAGTTHYSDSVKGRFTISRDNAANTAYLQMNSLRPDDTAVYYCNRVIRGTTYPDVYYGMDYWGKGTLVTVSS
notes: as for B10
B17: NB734 (Fc fusion)
heavy: QVQLVETGGGLVQAGGSLRLSCAASGDTILFSAVGWHRQAPGKERELVAAITNSGVTYYADSVKGRFSISRDNAKNTVYLQMNSLKPEDTAVYYCNAGAPPPGEFGYDESDYWGQGTQVTVSS
notes: as for B10
B18: NB223 (Fc fusion)
heavy: EVQLVESGGGLVQAGGSLRLSCAASGRTFSSYGMGWFRQAPGKEREFVAAVNWSNSSAYYADSVKDRFTISSDNAKSTIYLQMNSLKPEDTAVYYCRPYSDYVTYDPDDYDYWGQGTQVTVSS
notes: as for B10
B19: NB211 (Fc fusion)
heavy: EVQVVETGGGLAQAGGSLRLSCAASGRTFSGYTVGWYRQSPGKEREFVAAISYSGGSTDYADSVKGRFTISRDNANNTVYLQMGSLKAEDTAVYYCNRVIRGTRDPSIYYVMDYWGKGTLVTVSS
notes: as for B10
B20: NB215 (Fc fusion)
heavy: EVQVVESGGGLVQAGDSLRLSCAASGGTISGYEMGWFRQAPGKEREFVAGISRNGRSTGYSDSAKDRFTISRDNAKNTVYLQMNSLKPEDTAVYYCAAGLKADYGDSYVDTSTRNYNYWGQGTQVTVSS
notes: as for B10
B21: NB194-P29-z1 (Fc fusion)
heavy: QVQLVESGGGLVQPGGSLRLSCSASGHSFSIYDMGWFRQAADKERESVAVINFGRGTTYYAESVKGRFTISRDNAKNTVYLQMNSLRAEDTAVYSCGIDRRQYGLGIPPLADHWGQGSQVTVSS
notes: as for B10
B22: NB194-P29-z3 (Fc fusion)
heavy: QVQLVESGGGLVQPGGSLTLSCSASGHSFSIYDMGWFRQAADKERESVAVINFGRGTTYYAESVKGRFTISRDNAKNTVYLQMNSLRAEDTAVYSCGIDRRQYGLGIPPLADHWGQGSQVTVSS
notes: as for B10
B23: NB194-P29-z4 (Fc fusion)
heavy: QVQLVESGGGLVQPGGSLRLSCTASGHSFSIYDMGWFRQAADKERESVAVINFGRGTTYYAESVKGRFTISRDNAKNTVYLQMNSLRAEDTAVYSCGIDRRQYGLGIPPLADHWGQGSQVTVSS
notes: as for B10
B24: NB194-P29-z2 (Fc fusion)
heavy: QLQLVESGGGLVQPGGSLRLSCSASGHSFSIYDMGWFRQAADKERESVAVINFGRGTTYYAESVKGRFTISRDNAKNTVYLQMNSLRAEDTAVYSCGIDRRQYGLGIPPLADHWGQGSQVTVSS
notes: as for B10
B25: NB194-P29-z5 (Fc fusion)
heavy: QVQLVESGGGLVQPGGSLRLSCSASGHSFSIYDMGWFRQAPDKERESVAVINFGRGTTYYAESVKGRFTISRDNAKNTVYLQMNSLRAEDTAVYSCGIDRRQYGLGIPPLADHWGQGSQVTVSS
notes: as for B10

T3 sequence (Q15116 25-170 limits assumed): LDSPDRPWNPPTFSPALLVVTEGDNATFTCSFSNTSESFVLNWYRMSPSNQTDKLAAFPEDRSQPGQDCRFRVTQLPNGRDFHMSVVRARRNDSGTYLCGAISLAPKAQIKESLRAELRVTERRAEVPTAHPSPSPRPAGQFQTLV

One test deals with T1, PD-1.His (UniProt Q15116 25-170, limits assumed).
T1 construct: not shown: His tag
T1 sequence (Q15116 25-170 limits assumed): as above
The test can be described thus: SPR, antibody captured on protein A, PD-1.His in flow. A general note: SPR reads the build-up and loss of mass on a sensor chip optically.
B1 came in with a Kd of 15 nM, an off-rate (koff) of 9.73e-05 s⁻¹ and an on-rate constant (kon) of 6480 M⁻¹ s⁻¹.
For B2, binding was put at a Kd of 8.2 nM, the koff was found to be 4.59e-05 s⁻¹ and the kon was found to be 5600 M⁻¹ s⁻¹.
In turn, B3 had a dissociation constant (Kd) of 11.8 nM, a koff of 7.11e-05 s⁻¹ and a kon of 6000 M⁻¹ s⁻¹.
Take B4: the dissociation constant Kd amounted to 8.25 nM, the off-rate constant (koff) stood at 7.61e-05 s⁻¹ and the kon is 9220 M⁻¹ s⁻¹.
Consider B5, for which the Kd was 14 nM, the koff came out at 9.07e-05 s⁻¹ and the on-rate (kon) worked out at 6460 M⁻¹ s⁻¹.
The corresponding values for B6 are 0.598 nM, 7.92e-05 s⁻¹ and 133000 M⁻¹ s⁻¹.
The like results for B7 were, in that order, 1.01 nM, 9.88e-05 s⁻¹ and 97600 M⁻¹ s⁻¹.
The corresponding values for B8 are 0.586 nM, 7.79e-05 s⁻¹ and 133000 M⁻¹ s⁻¹.
B9: the equilibrium dissociation constant (Kd) worked out at 0.837 nM, the koff turned out to be 0.000107 s⁻¹ and the kon amounted to 128000 M⁻¹ s⁻¹.

The target of another test is T2, human PD-1.Fc (human, UniProt Q15116 25-170, limits assumed).
T2 construct: also called PD-1; Fc protein; PD-1.hFc; not shown: human IgG Fc fragment
T2 sequence (Q15116 25-170 limits assumed): as above
Description: SPR, antibody captured on protein A, PD-1.Fc in flow.
Turning to B10, the Kd was 0.328 nM, the off-rate constant (koff) was determined as 6.77e-05 s⁻¹ and the kon was 206000 M⁻¹ s⁻¹.
The corresponding values for B11 are 83.1 nM, 0.000179 s⁻¹ and 2150 M⁻¹ s⁻¹.
Molecule B12 registered a dissociation constant Kd of 7.03 nM, an off-rate (koff) of 0.00092 s⁻¹ and a kon of 131000 M⁻¹ s⁻¹.
The corresponding values for B13 are 2.75 nM, 0.000153 s⁻¹ and 55800 M⁻¹ s⁻¹.
The molecule B14 yielded a Kd of 0.219 nM, a koff of 0.000323 s⁻¹ and a kon of 1.48e+06 M⁻¹ s⁻¹.
The like results for B15 were, in that order, 6.21 nM, 0.000309 s⁻¹ and 49700 M⁻¹ s⁻¹.
The corresponding values for B16 are 0.149 nM, 0.000306 s⁻¹ and 2.05e+06 M⁻¹ s⁻¹.
The corresponding values for B17 are 0.292 nM, 6.88e-05 s⁻¹ and 236000 M⁻¹ s⁻¹.
The molecule B18 registered a dissociation constant Kd of 6.39 nM, a koff of 0.000863 s⁻¹ and a kon of 135000 M⁻¹ s⁻¹.
The corresponding values for B19 are 1.33 nM, 0.003 s⁻¹ and 2.26e+06 M⁻¹ s⁻¹.
For B20, the Kd came out at 10.4 nM, the dissociation rate constant (koff) came out at 0.000508 s⁻¹ and the kon was found to be 49000 M⁻¹ s⁻¹.

Another test has as its target T3, PD-1 (UniProt Q15116 25-170, limits assumed).
T3 construct: also called PD-1 protein
Description: SPR; set-up and antigen form not restated.
Take B21: the dissociation constant (Kd) worked out at 0.263 nM, the dissociation rate constant (koff) came to 3.06e-05 s⁻¹ and the on-rate constant (kon) is 117000 M⁻¹ s⁻¹.
The like results for B22 were, in that order, 0.202 nM, 3.75e-05 s⁻¹ and 186000 M⁻¹ s⁻¹.
The like results for B23 were, in that order, 0.222 nM, 2.61e-05 s⁻¹ and 117000 M⁻¹ s⁻¹.
The corresponding values for B24 are 0.129 nM, 1.66e-05 s⁻¹ and 129000 M⁻¹ s⁻¹.
Consider B25, for which the Kd stood at 0.2 nM, the koff stood at 2.43e-05 s⁻¹ and the kon was 121000 M⁻¹ s⁻¹.
